In patent US8716246B2, “Azuvirin peptides” (The Regents of the University of California, priority 2011, dated 2014):
Square brackets hold non-standard residues; d marks the D form. Peptide text beside a SMILES is read from it. * marks the point of attachment. Oic = O=C(O)[C@@H]1C[C@@H]2CCCC[C@@H]2N1; Cha = N[C@@H](CC1CCCCC1)C(=O)O; Tle = CC(C)(C)[C@H](N)C(=O)O; Nicotinoyl = O=C(c1cccnc1)*; Acm = CC(=O)NC*

Columns and labels:
[1] = MultiTox-Fluor Multiplex Cytotoxicity Assay, LLC cells; type: cell-based, murine; conditions: mouse, Lewis lung carcinoma (LLC) cells; 24 h co-culture; read-out: LD50, LLC cells
Experimental: Experiments were carried out using MultiTox-Fluor Multiplex Cytotoxicity Assay (Promega Corp., Madison, Wis.) as previously described. This assay simultaneously measures the number of live and dead cells in culture wells based on the activity of two proteases, one a marker of cell viability, and the other a marker of cytotoxicity, which yield products with different excitation and emission spectra. Briefly, for cytotoxicity experiments murine LCC (or RAW 264.7) cells were plated in a 96-well plate at a density of 1×10^4 cells/well in a total volume of 50 μl of culture media and treated with various concentrations of tested peptides (50 μl of 0-400 μM peptides in culture media). Cells' viability was assessed 24 h later by MultiTox-Fluor Multiplex Cytotoxicity Assay (incubation time 1 h). For cell viability experiments, LCC cells were plated in a 96-well plate at a density of 5×10^3 cells/well in a total volume of 50 μl of culture media and treated with various concentrations of tested peptide (50 μl of 0-200 μM peptide in culture media) for 1 hour prior to 0, 2, 4 Gy irradiation. Cell viability was assessed 72 h later by MultiTox-Fluor Multiplex Cytotoxicity Assay (incubation time 1 h). All experiments were carried out in triplicates.

in vitro = conditions: for peptide concentration remaining in human serum ± SEM (AUC): 37° C.
Experimental: Serum stability. Human blood serum was prepared using BD Vacutainer→Rapid Serum Tubes (RST) (BD Diagnostics, Franklin Lakes, N.J.) according to manufacturer's recommendations. Serum was harvested and either used fresh or stored at −80° C. Stability of the AzV36-NicL in the human serum was determined as previously described. Briefly, 50 μl of an aqueous peptide stock solution (10 mg/ml) was added to 1.95 ml of 25% pooled, non-heat inactivated human serum in PBS and incubated at 37° C. […] The resulting mixtures were kept at 5° C. for 10 min and then centrifuged at 300 g for 5 min. 100 μl of the supernatants were analyzed using analytical ProStar 210 HPLC system with a ProStar 325 Dual Wavelength detector set at 220 nm and 280 nm (Varian Inc., Palo Alto, Calif.). The mobile phases were: Solvent A, 0.1% TFA (trifluoroacetic acid) in water; solvent B, 0.1% TFA in acetonitrile. Experiments were performed using Vydac 218TP54 C18 column, 4.6×250 mm, 5 μM (Grace Vydac, Hesperia, Calif.) in a linear 0 to 100% gradient of solvent B applied over 100 min at 1 ml/min.

[2] = Observation of toxicity during the in vivo mouse studies; set-up: species or system C57BL/6 mice; conditions: 25 mg/kg IP
Experimental: Animal experiments. C57BL/6 gnotobiotic mice (8 weeks old) were obtained from the UCLA AALAC accredited Department of Radiation Oncology Facility and intravenously injected with 5×10^5 cells of syngeneic LLC. Various treatments were initiated 4 days later, after cancer engraftment. In general, each animal received intraperitoneally a total of 500 μg (˜25 mg/kg) of peptide (or equimolar amount of nicotinamide) in 4 daily doses 60 min before local thoracic irradiation (0 or 4 Gy, total dose: 4.4=16 Gy) that was delivered using an Atomic Energy of Canada cesium gamma irradiator with a dose rate of approximately 0.6 Gy/min with the rest of the body shielded. Prior to irradiation animals were anesthetized by intraperitoneal injection of ketamine/xylazine mixture. Animals were sacrificed on the 14th day of the experiment and lung tumor nodules were counted. All experiments were approved by the UCLA Animal Care and Use Committee and conformed to local and national guidelines.
C57BL/6 mice (8 weeks old) were injected subcutaneously with 1.0×10^6 cells of syngeneic LLC (leg). After 10 days, palpable tumors of approximately 5 mm diameter appeared and treatment was initiated. […] Tumor size was assessed every two days and animals sacrificed as necessary according to the UCLA Animal Care guidelines.

rhEphB2/Fc = rhEphB2/Fc (Homo sapiens, UniProt P29323); test: SPR binding to immobilized rhEphB2/Fc (Biacore 3000); set-up: Fc; purchased R&D Systems, Inc., Minneapolis, Minn
Experimental: Binding to selected ephrin receptors was measured by surface plasmon resonance on a Biacore3000 instrument. Commercially available ephrin receptors: EphA2, EphB2 and EphB4 (R&D Systems) were immobilized on a CM-5 chip by amine coupling and tested peptides were passed over a chip surface as analytes.
Binding studies. Binding studies were performed by surface plasmon resonance (SPR) on a BIAcore 3000 system (BiaCore AB, Piscataway, N.J.). BIAcore CM5 sensor chips were utilized in all experiments. Binding studies were performed in HBS-EP running buffer (pH=7.4) containing 10 mM HEPES, 150 mM NaCl, 3 mM EDTA, and 0.005% polysorbate 20. Commercially available ephrin receptors: EphA2, EphB2 and EphB4 (R&D Systems, Inc., Minneapolis, Minn.) were immobilized on a CM5 sensor chip using the amine coupling method. The chip was activated by mixing 400 mM N-ethyl-N-(3-dimethylaminopropyl)-carbodiimide hydrochloride and 100 mM N-hydroxysuccinimide. Residual reactive groups on the chip surface were blocked using 1.0 M ethanolamine/HCl (pH=8.5). The flow cell-1 chip, which served as a control, lacked immobilized protein but was treated with N-ethyl-N-(3-dimethylaminopropyl)-carbodiimide hydrochloride, N hydroxysuccinimide, and ethanolamine/HCl. Binding signals were corrected for nonspecific binding by subtracting the flow cell-1 signal (blank surface). To regenerate chip surfaces, bound ligands were removed with 10 mM HCl. Data were analyzed with BIAevaluation 4.1 software (Biacore, Piscataway, N.J.).

[3] = human, 25% pooled, non-heat inactivated human serum in PBS

## CC(=O)NCSC[C@H](NC(=O)[C@H](CC1CCCCC1)NC(=O)[C@H](CC1CCCCC1)NC(=O)[C@@H](CCCCNC(=O)c1cccnc1)NC(=O)[C@@H](N)Cc1ccc(O)cc1)C(=O)N[C@H](C(=O)N[C@@H](CC1CCCCC1)C(=O)N1[C@H](C(=O)N[C@H](CCCNC(=N)N)C(=O)N[C@@H](Cc2c[nH]cn2)C(=O)N[C@@H](CCCNC(=N)N)C(=O)N[C@H](C(=O)N[C@@H](CC2CCCCC2)C(=O)N[C@@H](CSCNC(C)=O)C(=O)N[C@H](CCCCN)C(N)=O)[C@@H](C)O)C[C@@H]2CCCC[C@@H]21)C(C)(C)C [AzV36-NicL, YkNic-Cha-Cha-Cam-Tle-Cha-Oic-rHRT-Cha-Cam-k-CONH] (H-Y[dK](Nicotinoyl)[Cha][Cha]C(Acm)[Tle][Cha][Oic][dR]HRT[Cha]C(Acm)[dK]-NH2)
[1]
  CC50 at 24 h: 17 ± 2.84 µM
In vitro; 24 h, 25% human serum in PBS
  peptide concentration remaining in human serum ± SEM (AUC): 100±0.64%
In vitro; 6 days
  peptide concentration remaining in human serum ± SEM (AUC): 97.8±2.86%
In vitro; [3]
  remaining at 24 h, 0.25 mg/ml: 100 ± 0.64%
  remaining at 144 h, 0.25 mg/ml: 97.8 ± 2.86%
[2]
  toxic effect of the injections in vivo: no obvious toxic effect
rhEphB2/Fc
  Kd: 0.0143 ± 0.0033 µM
